# Reference: IntAct's records for PubMed 29691401
# Molecular target: lmbl3_human L3MBTL3 (UniProt Q96JM7)
# Sequence (Q96JM7 whole entry): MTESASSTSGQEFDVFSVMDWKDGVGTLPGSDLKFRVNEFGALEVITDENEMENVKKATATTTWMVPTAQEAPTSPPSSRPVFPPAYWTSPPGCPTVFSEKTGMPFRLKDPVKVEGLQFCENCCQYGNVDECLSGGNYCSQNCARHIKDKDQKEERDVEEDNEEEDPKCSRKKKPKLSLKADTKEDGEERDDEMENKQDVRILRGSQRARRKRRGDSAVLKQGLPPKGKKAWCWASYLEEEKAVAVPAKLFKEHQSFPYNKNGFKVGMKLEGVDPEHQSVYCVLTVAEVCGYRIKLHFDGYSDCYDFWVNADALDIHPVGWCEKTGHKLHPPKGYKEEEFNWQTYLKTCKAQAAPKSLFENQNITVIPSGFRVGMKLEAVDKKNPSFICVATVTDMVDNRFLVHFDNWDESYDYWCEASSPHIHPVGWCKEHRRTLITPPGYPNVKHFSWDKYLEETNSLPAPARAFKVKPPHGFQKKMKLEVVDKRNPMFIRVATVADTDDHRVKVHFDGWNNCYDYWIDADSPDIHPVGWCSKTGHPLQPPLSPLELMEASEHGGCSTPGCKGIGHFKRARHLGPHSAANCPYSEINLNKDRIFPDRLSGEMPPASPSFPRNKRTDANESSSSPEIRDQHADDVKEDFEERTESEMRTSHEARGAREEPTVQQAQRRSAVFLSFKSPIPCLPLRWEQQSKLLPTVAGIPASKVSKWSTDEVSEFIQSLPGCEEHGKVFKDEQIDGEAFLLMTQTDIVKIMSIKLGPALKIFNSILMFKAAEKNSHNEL
# Sequence of Transcription factor E2F1 (Homo sapiens), Q01094 K185R (Q01094 whole entry K185R): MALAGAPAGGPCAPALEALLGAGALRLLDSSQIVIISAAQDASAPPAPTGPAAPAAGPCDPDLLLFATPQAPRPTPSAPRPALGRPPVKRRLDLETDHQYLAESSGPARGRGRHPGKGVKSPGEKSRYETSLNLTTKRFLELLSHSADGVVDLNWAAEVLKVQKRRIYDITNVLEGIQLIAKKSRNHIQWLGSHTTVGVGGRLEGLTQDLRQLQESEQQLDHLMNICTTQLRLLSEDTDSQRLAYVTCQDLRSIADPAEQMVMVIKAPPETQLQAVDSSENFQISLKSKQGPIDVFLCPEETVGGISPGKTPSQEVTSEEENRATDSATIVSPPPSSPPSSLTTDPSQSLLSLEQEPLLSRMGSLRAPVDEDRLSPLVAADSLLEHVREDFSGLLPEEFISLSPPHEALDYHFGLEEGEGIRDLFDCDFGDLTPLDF
substance,measurement,value
"Transcription factor E2F1 (Homo sapiens), Q01094 K185R",effect of a mutation on the interaction,disrupting interaction strength
